Experimental data published in patent publication US20230357348A1 (AstraZeneca / MedImmune, published 2023).
Starred links: 1 amine or outer side, 2 acyl side, 3 side chain; linkers in the order of their positions; H or OH if unused. Non-standard residues stand in square brackets, D forms with d. Groups on a side chain read outwards from the residue. No end group written: not given here. *: point of attachment. C20 diacid = O=C(O)CCCCCCCCCCCCCCCCCCC(=O)*; C18 diacid = O=C(O)CCCCCCCCCCCCCCCCC(=O)*; γGlu = O=C(O)[C@H](CCC(=O)[*:2])N[*:1]; αMeF = C[C@](N)(Cc1ccccc1)C(=O)O; AEEA = NCCOCCOCC(=O)O; Aib = CC(C)(N)C(=O)O

Experiments:
[1] = target: human GLP-1 receptor (hGLP-1R) (human, UniProt P43220 24-463); test: cell-based or functional assay
[2] = target: human glucagon receptor (hGCGR) (human, UniProt P47871 26-477); test: cell-based or functional assay
Chain of human glucagon receptor (hGCGR) (P47871 26-477): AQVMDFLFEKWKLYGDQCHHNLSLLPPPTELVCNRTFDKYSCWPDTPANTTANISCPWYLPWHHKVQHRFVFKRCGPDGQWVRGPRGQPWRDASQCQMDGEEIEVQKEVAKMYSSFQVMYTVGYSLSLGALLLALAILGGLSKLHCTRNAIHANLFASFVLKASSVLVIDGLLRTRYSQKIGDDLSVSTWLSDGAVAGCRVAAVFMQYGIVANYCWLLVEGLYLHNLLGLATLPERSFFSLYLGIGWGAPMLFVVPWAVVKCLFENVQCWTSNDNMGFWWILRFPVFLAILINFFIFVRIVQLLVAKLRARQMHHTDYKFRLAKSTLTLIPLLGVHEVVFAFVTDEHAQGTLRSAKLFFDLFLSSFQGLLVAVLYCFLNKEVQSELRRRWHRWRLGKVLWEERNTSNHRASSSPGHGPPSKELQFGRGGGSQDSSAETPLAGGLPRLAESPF

hGLP-1R EC50 (pM) [1] [pM] | hGluc-R EC50 (pM) [2] [pM] | Binder
98.1 | 378 | H[Aib]QGTFTSDVSK[αMeF]LDTK([AEEA-AEEA-γGlu-C18 diacid])RAQDFVAWLEAGG-OH (N-terminus assumed; SMILES CC(C)C[C@H](NC(=O)[C@H](Cc1c[nH]c2ccccc12)NC(=O)[C@H](C)NC(=O)[C@@H](NC(=O)[C@H](Cc1ccccc1)NC(=O)[C@H](CC(=O)O)NC(=O)[C@H](CCC(N)=O)NC(=O)[C@H](C)NC(=O)[C@H](CCCNC(=N)N)NC(=O)[C@H](CCCCNC(=O)COCCOCCNC(=O)COCCOCCNC(=O)CC[C@H](NC(=O)CCCCCCCCCCCCCCCCC(=O)O)C(=O)O)NC(=O)[C@@H](NC(=O)[C@H](CC(=O)O)NC(=O)[C@H](CC(C)C)NC(=O)[C@](C)(Cc1ccccc1)NC(=O)[C@H](CCCCN)NC(=O)[C@H](CO)NC(=O)[C@@H](NC(=O)[C@H](CC(=O)O)NC(=O)[C@H](CO)NC(=O)[C@@H](NC(=O)[C@H](Cc1ccccc1)NC(=O)[C@@H](NC(=O)CNC(=O)[C@H](CCC(N)=O)NC(=O)C(C)(C)NC(=O)[C@@H](N)Cc1c[nH]cn1)[C@@H](C)O)[C@@H](C)O)C(C)C)[C@@H](C)O)C(C)C)C(=O)N[C@@H](CCC(=O)O)C(=O)N[C@@H](C)C(=O)NCC(=O)NCC(=O)O) [Peptide 411]
14.7 | 301 | H[Aib]QGTFTSDVSK[αMeF]LESK([AEEA-AEEA-γGlu-C18 diacid])RAQDFVRWLEA[Aib]G-OH (N-terminus assumed; SMILES CC(C)C[C@H](NC(=O)[C@H](Cc1c[nH]c2ccccc12)NC(=O)[C@H](CCCNC(=N)N)NC(=O)[C@@H](NC(=O)[C@H](Cc1ccccc1)NC(=O)[C@H](CC(=O)O)NC(=O)[C@H](CCC(N)=O)NC(=O)[C@H](C)NC(=O)[C@H](CCCNC(=N)N)NC(=O)[C@H](CCCCNC(=O)COCCOCCNC(=O)COCCOCCNC(=O)CC[C@H](NC(=O)CCCCCCCCCCCCCCCCC(=O)O)C(=O)O)NC(=O)[C@H](CO)NC(=O)[C@H](CCC(=O)O)NC(=O)[C@H](CC(C)C)NC(=O)[C@](C)(Cc1ccccc1)NC(=O)[C@H](CCCCN)NC(=O)[C@H](CO)NC(=O)[C@@H](NC(=O)[C@H](CC(=O)O)NC(=O)[C@H](CO)NC(=O)[C@@H](NC(=O)[C@H](Cc1ccccc1)NC(=O)[C@@H](NC(=O)CNC(=O)[C@H](CCC(N)=O)NC(=O)C(C)(C)NC(=O)[C@@H](N)Cc1c[nH]cn1)[C@@H](C)O)[C@@H](C)O)C(C)C)C(C)C)C(=O)N[C@@H](CCC(=O)O)C(=O)N[C@@H](C)C(=O)NC(C)(C)C(=O)NCC(=O)O) [Peptide 415]
406 | 1020 | H[Aib]QGTFTSDVSK[αMeF]LDTK([AEEA-AEEA-γGlu-γGlu-C20 diacid])RAQDFVAWLEAGG-OH [Peptide 413]
32.3 | 26.9 | H[Aib]QGTFTSDVSK[αMeF]LDKK([AEEA-AEEA-γGlu-C18 diacid])RARDFVRWLL[Aib]E-OH (N-terminus assumed; SMILES CC(C)C[C@H](NC(=O)[C@H](Cc1c[nH]c2ccccc12)NC(=O)[C@H](CCCNC(=N)N)NC(=O)[C@@H](NC(=O)[C@H](Cc1ccccc1)NC(=O)[C@H](CC(=O)O)NC(=O)[C@H](CCCNC(=N)N)NC(=O)[C@H](C)NC(=O)[C@H](CCCNC(=N)N)NC(=O)[C@H](CCCCNC(=O)COCCOCCNC(=O)COCCOCCNC(=O)CC[C@H](NC(=O)CCCCCCCCCCCCCCCCC(=O)O)C(=O)O)NC(=O)[C@H](CCCCN)NC(=O)[C@H](CC(=O)O)NC(=O)[C@H](CC(C)C)NC(=O)[C@](C)(Cc1ccccc1)NC(=O)[C@H](CCCCN)NC(=O)[C@H](CO)NC(=O)[C@@H](NC(=O)[C@H](CC(=O)O)NC(=O)[C@H](CO)NC(=O)[C@@H](NC(=O)[C@H](Cc1ccccc1)NC(=O)[C@@H](NC(=O)CNC(=O)[C@H](CCC(N)=O)NC(=O)C(C)(C)NC(=O)[C@@H](N)Cc1c[nH]cn1)[C@@H](C)O)[C@@H](C)O)C(C)C)C(C)C)C(=O)N[C@@H](CC(C)C)C(=O)NC(C)(C)C(=O)N[C@@H](CCC(=O)O)C(=O)O) [Peptide 414]
186 | 397 | H[Aib]QGTFTSDVSK[αMeF]LDTK([AEEA-AEEA-γGlu-C20 diacid])RAQDFVAWLEAGG-OH (N-terminus assumed; SMILES CC(C)C[C@H](NC(=O)[C@H](Cc1c[nH]c2ccccc12)NC(=O)[C@H](C)NC(=O)[C@@H](NC(=O)[C@H](Cc1ccccc1)NC(=O)[C@H](CC(=O)O)NC(=O)[C@H](CCC(N)=O)NC(=O)[C@H](C)NC(=O)[C@H](CCCNC(=N)N)NC(=O)[C@H](CCCCNC(=O)COCCOCCNC(=O)COCCOCCNC(=O)CC[C@H](NC(=O)CCCCCCCCCCCCCCCCCCC(=O)O)C(=O)O)NC(=O)[C@@H](NC(=O)[C@H](CC(=O)O)NC(=O)[C@H](CC(C)C)NC(=O)[C@](C)(Cc1ccccc1)NC(=O)[C@H](CCCCN)NC(=O)[C@H](CO)NC(=O)[C@@H](NC(=O)[C@H](CC(=O)O)NC(=O)[C@H](CO)NC(=O)[C@@H](NC(=O)[C@H](Cc1ccccc1)NC(=O)[C@@H](NC(=O)CNC(=O)[C@H](CCC(N)=O)NC(=O)C(C)(C)NC(=O)[C@@H](N)Cc1c[nH]cn1)[C@@H](C)O)[C@@H](C)O)C(C)C)[C@@H](C)O)C(C)C)C(=O)N[C@@H](CCC(=O)O)C(=O)N[C@@H](C)C(=O)NCC(=O)NCC(=O)O) [Peptide 412]
33.9 | 16.4 | H[Aib]QGTFTSDVSK[αMeF]LDTK([AEEA-AEEA-γGlu-γGlu-C18 diacid])RAQDFVAWLEA[Aib]G-OH (N-terminus assumed; SMILES CC(C)C[C@H](NC(=O)[C@H](Cc1c[nH]c2ccccc12)NC(=O)[C@H](C)NC(=O)[C@@H](NC(=O)[C@H](Cc1ccccc1)NC(=O)[C@H](CC(=O)O)NC(=O)[C@H](CCC(N)=O)NC(=O)[C@H](C)NC(=O)[C@H](CCCNC(=N)N)NC(=O)[C@H](CCCCNC(=O)COCCOCCNC(=O)COCCOCCNC(=O)CC[C@H](NC(=O)CC[C@H](NC(=O)CCCCCCCCCCCCCCCCC(=O)O)C(=O)O)C(=O)O)NC(=O)[C@@H](NC(=O)[C@H](CC(=O)O)NC(=O)[C@H](CC(C)C)NC(=O)[C@](C)(Cc1ccccc1)NC(=O)[C@H](CCCCN)NC(=O)[C@H](CO)NC(=O)[C@@H](NC(=O)[C@H](CC(=O)O)NC(=O)[C@H](CO)NC(=O)[C@@H](NC(=O)[C@H](Cc1ccccc1)NC(=O)[C@@H](NC(=O)CNC(=O)[C@H](CCC(N)=O)NC(=O)C(C)(C)NC(=O)[C@@H](N)Cc1c[nH]cn1)[C@@H](C)O)[C@@H](C)O)C(C)C)[C@@H](C)O)C(C)C)C(=O)N[C@@H](CCC(=O)O)C(=O)N[C@@H](C)C(=O)NC(C)(C)C(=O)NCC(=O)O) [Peptide 417]
88.1 | 222 | H[Aib]QGTFTSDVSK[αMeF]LDTK([AEEA-AEEA-γGlu-γGlu-C20 diacid])RAQDFVAWLEA[Aib]G-OH (N-terminus assumed; SMILES CC(C)C[C@H](NC(=O)[C@H](Cc1c[nH]c2ccccc12)NC(=O)[C@H](C)NC(=O)[C@@H](NC(=O)[C@H](Cc1ccccc1)NC(=O)[C@H](CC(=O)O)NC(=O)[C@H](CCC(N)=O)NC(=O)[C@H](C)NC(=O)[C@H](CCCNC(=N)N)NC(=O)[C@H](CCCCNC(=O)COCCOCCNC(=O)COCCOCCNC(=O)CC[C@H](NC(=O)CC[C@H](NC(=O)CCCCCCCCCCCCCCCCCCC(=O)O)C(=O)O)C(=O)O)NC(=O)[C@@H](NC(=O)[C@H](CC(=O)O)NC(=O)[C@H](CC(C)C)NC(=O)[C@](C)(Cc1ccccc1)NC(=O)[C@H](CCCCN)NC(=O)[C@H](CO)NC(=O)[C@@H](NC(=O)[C@H](CC(=O)O)NC(=O)[C@H](CO)NC(=O)[C@@H](NC(=O)[C@H](Cc1ccccc1)NC(=O)[C@@H](NC(=O)CNC(=O)[C@H](CCC(N)=O)NC(=O)C(C)(C)NC(=O)[C@@H](N)Cc1c[nH]cn1)[C@@H](C)O)[C@@H](C)O)C(C)C)[C@@H](C)O)C(C)C)C(=O)N[C@@H](CCC(=O)O)C(=O)N[C@@H](C)C(=O)NC(C)(C)C(=O)NCC(=O)O) [Peptide 418]
67.7 | 581 | H[Aib]QGTFTSDVSK[αMeF]LESK([AEEA-AEEA-γGlu-C20 diacid])RAQDFVRWLEA[Aib]G-OH (N-terminus assumed; SMILES CC(C)C[C@H](NC(=O)[C@H](Cc1c[nH]c2ccccc12)NC(=O)[C@H](CCCNC(=N)N)NC(=O)[C@@H](NC(=O)[C@H](Cc1ccccc1)NC(=O)[C@H](CC(=O)O)NC(=O)[C@H](CCC(N)=O)NC(=O)[C@H](C)NC(=O)[C@H](CCCNC(=N)N)NC(=O)[C@H](CCCCNC(=O)COCCOCCNC(=O)COCCOCCNC(=O)CC[C@H](NC(=O)CCCCCCCCCCCCCCCCCCC(=O)O)C(=O)O)NC(=O)[C@H](CO)NC(=O)[C@H](CCC(=O)O)NC(=O)[C@H](CC(C)C)NC(=O)[C@](C)(Cc1ccccc1)NC(=O)[C@H](CCCCN)NC(=O)[C@H](CO)NC(=O)[C@@H](NC(=O)[C@H](CC(=O)O)NC(=O)[C@H](CO)NC(=O)[C@@H](NC(=O)[C@H](Cc1ccccc1)NC(=O)[C@@H](NC(=O)CNC(=O)[C@H](CCC(N)=O)NC(=O)C(C)(C)NC(=O)[C@@H](N)Cc1c[nH]cn1)[C@@H](C)O)[C@@H](C)O)C(C)C)C(C)C)C(=O)N[C@@H](CCC(=O)O)C(=O)N[C@@H](C)C(=O)NC(C)(C)C(=O)NCC(=O)O) [Peptide 416]
